Experiments:
[1] = biological target: YFP-TRPV6 (human ('hTRPV6' in p-0012; the printed GenBank AF160798 is rat, from memory)); assay: FRET or BRET
[2] = biological target: CFP-N198-TRPV6 (human ('hTRPV6' in p-0012; the printed GenBank AF160798 is rat, from memory)); assay: FRET or BRET
CFP-N198-TRPV6 (human ('hTRPV6' in p-0012; the printed GenBank AF160798 is rat, from memory)), sequence (Q9R186 whole entry): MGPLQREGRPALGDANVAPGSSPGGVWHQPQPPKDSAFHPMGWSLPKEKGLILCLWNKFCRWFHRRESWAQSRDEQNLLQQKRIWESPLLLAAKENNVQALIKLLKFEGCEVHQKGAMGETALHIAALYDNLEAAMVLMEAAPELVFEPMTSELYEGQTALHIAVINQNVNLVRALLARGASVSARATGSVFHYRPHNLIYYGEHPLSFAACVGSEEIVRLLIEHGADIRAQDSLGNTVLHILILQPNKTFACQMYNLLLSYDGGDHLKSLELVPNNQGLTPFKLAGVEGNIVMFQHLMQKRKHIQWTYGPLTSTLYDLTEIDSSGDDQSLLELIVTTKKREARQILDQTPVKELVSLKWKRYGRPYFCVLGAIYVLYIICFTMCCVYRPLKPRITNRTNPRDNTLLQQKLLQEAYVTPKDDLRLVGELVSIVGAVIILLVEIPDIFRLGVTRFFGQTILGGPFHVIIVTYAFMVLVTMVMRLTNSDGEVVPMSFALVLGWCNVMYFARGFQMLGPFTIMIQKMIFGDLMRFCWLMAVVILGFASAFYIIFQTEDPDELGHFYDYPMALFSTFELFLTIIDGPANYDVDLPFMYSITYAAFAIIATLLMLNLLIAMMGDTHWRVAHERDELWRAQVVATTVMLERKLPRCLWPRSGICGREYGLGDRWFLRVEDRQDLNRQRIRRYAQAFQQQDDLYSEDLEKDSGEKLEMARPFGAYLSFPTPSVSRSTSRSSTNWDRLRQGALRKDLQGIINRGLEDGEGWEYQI

YFP-TRPV6 (human ('hTRPV6' in p-0012; the printed GenBank AF160798 is rat, from memory)), sequence (Q9R186 whole entry): as above

| Molecule | FRET [1] | FRET [2] |
| --- | --- | --- |
| CFP-TRPC5 (from UniProt Q9QX29 1-975) (natural protein) | 0.02 |  |
| YFP-N193-TRPC1 (from UniProt P48995-2 1-193) (domain or fragment) |  | 0.11 |

Second part, the molecule after the results:

| FRET [1] | FRET [2] | Molecule |
| --- | --- | --- |
| 0.07 |  | CFP-TRPC1 (from UniProt P48995-2 1-759) (natural protein) |
| 0.02 |  | CFP-TRPC4 (from UniProt Q9QUQ5-1 1-974) (natural protein) |
| 0.01 |  | CFP-TRPC3 (natural protein) MSTKVRKCKEQARVTFPAPEEEEDEGEDEGAEPQRRRRGWRGVNGGLEPRSAPSQREPHGYCPPPFSHGPDLSMEGSPSLRRMTVMREKGRRQAVRGPAFMFNDRGTSLTAEEERFLDAAEYGNIPVVRKMLEESKTLNVNCVDYMGQNALQLAVGNEHLEVTELLLKKENLARIGDALLLAISKGYVRIVEAILNHPGFAASKRLTLSPCEQELQDDDFYAYDEDGTRFSPDITPIILAAHCQKYEVVHMLLMKGARIERPHDYFCKCGDCMEKQRHDSFSHSRSRINAYKGLASPAYLSLSSEDPVLTALELSNELAKLANIEKEFKNDYRKLSMQCKDFVVGVLDLCRDSEEVEAILNGDLESAEPLEVHRHKASLSRVKLAIKYEVKKFVAHPNCQQQLLTIWYENLSGLREQTIAIKCLVVLVVALGLPFLAIGYWIAPCSRLGKILRSPFMKFVAHAASFIIFLGLLVFNASDRFEGITTLPNITVTDYPKQIFRVKTTQFTWTEMLIMVWVLGMMWSECKELWLEGPREYILQLWNVLDFGMLSIFIAAFTARFLAFLQATKAQQYVDSYVQESDLSEVTLPPEIQYFTYARDKWLPSDPQIISEGLYAIAVVLSFSRIAYILPANESFGPLQISLGRTVKDIFKFMVLFIMVFFAFMIGMFILYSYYLGAKVNAAFTTVEESFKTLFWSIFGLSEVTSVVLKYDHKFIENIGYVLYGIYNVTMVVVLLNMLIAMINSSYQEIEDDSDVEWKFARSKLWLSYFDDGKTLPPPFSLVPSPKSFVYFIMRIVNFPKCRRRRLQKDIEMGMGNSKSRLNLFTQSNSRVFESHSFNSILNQPTRYQQIMKRLIKRYVLKAQVDKENDEVNEGELKEIKQDISSLRYELLEDKSQATEELAILIHKLSEKLNPSMLRCE |
